# Paper PMC13168245 (Nature Communications, 2026)
# B1: antibody 3BC315 Fab (Fab, V domains shown)
# VH: QVQLVQSGAEMKDPGASVKVSCRASGYKFTDYYMHWVRQAPGQGLEWVGWVNTNGGFTKYGAKFQGRVTVTRDTSTNTVFLELSRLTFGDTAMYFCARPMRPVSHGIDYSGLFVFQFWGRGTMVTVSS
# VL: QSALTQPASVSASPGQSITISCSGTRSDVGGYDFVSWYQQHPGKVPKLIIYEVTKRPSGIPQRFSGSKSGNTASLTISGLQADDEADYYCCSYANYDKLILGGGTKLTVL
# notes: source: Expi293F, heavy and light chain co-expressed; IgG purified on Protein A, digested with papain, Fab in the Protein A flow-through
# Key:
# [1] = target: T1, AMC008-b12 complex (HIV-1 clade B, isolate AMC008 …, stabilised); assay: mass photometry; AMC008 with two excess Fabs (b12 and 3BC315, or VRC01 and 3BC315), 1:9 molar ratio in PBS, on ice 30 minutes, diluted in PBS; mass increase divided by 55 kDa per Fab; settings: both partners purified
# T1 construct: source: formed from purified AMC008 Env (Expi293F) and excess b12 Fab (1:9 molar ratio in PBS, on ice 30 minutes); copies: 3 + 3 + 3 + 3
# [2] = target: T2, AMC008-VRC01 complex (HIV-1 clade B, isolate AMC008 …, stabilised); assay: as above; settings: both partners purified
# T2 construct: source: formed from purified AMC008 Env (Expi293F) and excess VRC01 Fab (1:9 molar ratio in PBS, on ice 30 minutes); copies: 3 + 3 + 3 + 3
binder,measurement,setting,value
B1,stoichiometry N,[1],~3 Fabs
same,stoichiometry N,[2],~1 Fab
